Measurements taken from the nanobody polyreactivity screen of Harvey et al. (2022).

Assay: yeast display, Sf9 membrane polyspecificity reagent, FACS + sequencing; frameworks hold sequencing errors
Procedure, shortened: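 Galactose induction of a Saccharomyces cerevisiae BJ5465 synthetic nanobody display library ran 36–48 hours. The cells were then stained for 1 hour at 4 °C with 10% biotinylated, detergent-solubilized Sf9 membrane reagent, pulled down on streptavidin microbeads and FACS-sorted into low and high (top ~1%) gates on expression and reagent-binding fluorescence. Labels for polyreactivity follow the gate of origin.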

Sequence | polyreactivity (PSR sort gate)
QVQLVESGGGLVQAGGSLRLSCAASGSIFYWNAMGWYRQAPGKERELVAAISYNGGSTYYADSVKGRFTISRDNAKNTVYLQMNSLKPEDTAVYYCAADNYYYGYEYWGQGTQVTVSS | high polyreactivity
QVQLVESGGGLVQAGGSLRLSCAASGRTFATNTMGWYRQAPGKERELVAAITFSGGSTYYADSVKGRFTISRDNAKNTVYLQMNSLKREDTAVYYCNVRSPYYSYRYRYGYWGHGTQVTVSS | high polyreactivity
QVQLVESGGGLVQAGGILRLSCAASGNAMGWYRQAPGKERELVATINRSGGRTYYADSVKGRFTISRDNAKNTVYLQMNSLKPEDTAVYYCATEGRWPNASYGDYDYWGQGTQVSVSS | low polyreactivity
QVQLVESGGGLVQAGGSLRLSCAASGSIFYLNAMGWYRQAPGKERELVATISNGGSTNYADSVKGRFTISRDNAKNTVYLQMNSLKPEDTAVYYCATGVIREGDYWGQGTKVTVSS | low polyreactivity
QVQLVESGGGLVQAGGSLRLSCAASGRIFRYYVMGWYRQAPGKERELVAAITSGTSTNYADSVKGRFTISRDNAKNTVYLQMNSLKPEDTAVYYCAFRSPRGGRTRFNSNYWGQGTQVTVSS | high polyreactivity
QVQLVESGGGLVQAGGSLRLSCAASGRTFYINAMGWYRQAPGKEREFVAAITDGGDRTYYADSVKGRFTISRDNEKNTVYLQMNSLKPEDTAVYYCAADRGVRYDYWGQGTQVTVSS | low polyreactivity
QVQLVESGGGLVQAGGSLRLSCAASGFTFYGNAMGWYRQAPGKERELVAAISSGGSTNYADSVKGRFTISRDNAKNTVYLQMNSLKPEDTAVYYCAASYPGQVSFPYASIGFDYWGQGTQVTVSS | low polyreactivity
QVQLVESGGGLLQAGGSLRLSCAASGSTIWSYAMGWYRQAPGKERELVASITWSGGSTYADSVKGRFTISRDNAKNTVYLQMNSLKPEDTAVYYCAADRGSYPDTGDYWGHGTQVTVSS | low polyreactivity
QVQLVESGGGLVQAGGSLRLSCAASGRIFRINDMGWYIQAPGKERELVAAITWSGGSTYYADSVKGRFTISRDNAKNPVYLPMNSLKPEDTAGYYCAADQAYFWGYYYWGQGTQVTVSS | low polyreactivity
QVQLVESGGGLVQAGGSLRLSCAASGRIFGVYAMGWYRQAPGKERELVADISWSGSGTYADSVKGRFTISRDNAKNTVYLQMNSLKPEDTAVYYCNVDPAQIHAGYVGYDYWGQGTQVTVSS | low polyreactivity
QVQLEESGGGLVQAGGSLRLTCAASGRIFYRYGMGWYRQATGKERELVAAISRTGGSTYYADSVKGRFTISRDNAKNSVYLQMNSLKPEDTAVYYCNATSNYRYDFWGQGTQVTVSS | low polyreactivity
QVQLEESGGGLVQAGGSLRLTCAASGSTFRYYALGWYRQAPGKERELVAAISGSGGRTYYADSVKGRFTISRDNAKNTVYLQMNSLKPEDTEVYYCNTRGRRTDYDYWGQGTQVTVSS | high polyreactivity
QVQLVESGGGLVQAGGSLRLSCHATGFTFTIYAMGWYRQAPGKERELVATISGRAGRTYYADSVKGRFTISRDIAKNTVYLQMNSLKPEDTAVYYCNAGQWRYPGLYYYWGKGTQVTVSS | high polyreactivity
QVQLVESGGGLVQAGGSLRLSCAASGSTFLVYAMGWYRQAPGKERELVAAITQIDGSTYYADSVKGRFTISRDNAKNTVYLQMNSLKPEDTAVYYCAARYFWTYEYDYWGQGTQVTVSS | low polyreactivity
QVQLVESGGGLVQAGGSLRLSCAASGITLATNAMGLYRQAPGKERELVAAINSGGITKYADSVKGRFTISRDNEKNTVYLQMNSLKPEDTAVYYCAADLEPRTNAPGLPTPDGYYWGQGTQVTVSS | low polyreactivity
QVQLGESGGGLVQAGGSLRLSCAASGRIFGGNAMGRYRQAPGKERELVATISSDGSTNYADSVKGRFTISRDIAKNTVYLQMNSLKPEDTAVYYCAKGFYTLTPHGMDYWGQGTQVTVSS | low polyreactivity

Sequence | polyreactivity (PSR sort gate)
QVQLVESGGGLVQAGGSLRLSCAASGITFPVYAMGWYRQAPGKEREFVASIRFSTGRTYYADSVKARFTISRDYAKNTVYLQMNSLKPEDTAVYYCRGTTQSPYNSWGQGTQVTVSS | high polyreactivity
QVQLVESGGGIVQARGSLRLSSAASGNIFRINGMGWSRQERGKERELVASITRSGSTYYADSVKGRFTISRDNAKNTVYLQMNILKPEDTAVYYCAADSSSYGVRFDYWGQGTQVTVSS | low polyreactivity
QVQLVESGGGLVQAGGSLRLSCAASGRIYTRNTMGWYRQAPGKERELVAAITSRGGSTYYADSVKGRFTISRDNAKNTVYLQMNSLKPEDTAVYYCAADKPRSYYYWGLGTQVTVSS | high polyreactivity
QVQLVESGGGLVQAGGTRRLSCAASGSIFYYYAMGWYRQAPGKERELVAAINRGVGSTFYADSVKGRFTISRDNAKNTVYLQMNSLKPEDTAVYYCAVELNQVTPGLGYITLDYWGQGTQVTVSS | low polyreactivity
QVQLVESGGGLVQAGGSLRLSCAASGRIFYAYAMGWYRQAPGKERELVAAISWSGGSTYYADSVKGRFTISRDNAKNTVNLQMNSLKPEDTAVYYCNADYWGQGTQVTVSS | low polyreactivity
QVQLVESGGGLVQAGGSLRLSCAASGSILNRYAMGWYRQAPGKERELVAAISRRSGSTYYADSVKGRFTISRDNAKNTVYLQMNSLKPEDTAVYYCAATSSLGDFRYDYWGQGTQVTVSS | high polyreactivity
QVQLVESGGGLVQAGGSLRLSCAASGITFTSYVMGWYRQAPGKERELVAAIRWSGGRTYYADSVKGRFTITRDNAKNTVYLQMNSLKPEDTAGYYCAAKRKPRPSYRYGYWGQGTQVTVSS | high polyreactivity
QVQLVESGGGLVQAGGSLRLSCAASGSISYIYTMGWYRQAPGKERELVAAISGSGSTYYADSVKGRFTISRDNAKNTVYLQMNSLKPEDTAVHYCNAGSGGLNFQEVPQGYDYWGQGTQVTVSS | low polyreactivity
QVQFVESGGGLVQAGGSLRLSCAASGSIFSSYAMGWYRQAPGKERELVAVINSGGSTNYADSVKGRFTISRDNAKNTVYLHMNSLKPEDTAVYYCNAYGGTFHNTAAEFDYWGQGTQVTVSS | low polyreactivity
QVQVVESGGGLVQAGGSLRLSCAASGRTFDVYAMGWYRQAPGKERELVAAITERGSTYYADSVKRRFTISRDNAKNTDYLQMNSLKPVDTAVYDCAARTSGDGCIYYYWGQGTQVTVSS | high polyreactivity
QVQLVESGGGLVKAGGSLRLSCCASGFTFTGYAMGWYRQAPGKEWELVAAITRGGGSTYYADSVKGRFTISRDNAKNTVYLQMNSLKREDTAVYYCAAQGSRLIRISSPYYGHDYWGQGTQVTVSS | low polyreactivity
QVQLVESGGGLVQAGGSLRLSCAASGSIFDGNAMGWYRQAPGKERDLVAANTKNDGTTYYADSVKGRFTISRDNAKNTVYLQMNSLKQEDTAVYYCAAESVYQVYTYVSSGDYWGQGTQVTVSS | low polyreactivity
QVQLVESGGGLVQAGGSLRLSCAASGIILSDNAMGWYRQAPGKEREIVAAITGSGGSTYYADSVKGRFTISRDNAKNTVYLQMNSLKPEDTAVYYCAADGPYGYYYGHYGYWGQGTQVTVSS | low polyreactivity
QVQLVESGGGLVQAGGSLRLSCAASGFTFSRNTMGSSRQAPGKERELVARIPASGGSTYYADSVKGRFTISRDNAKNTVYLLMNSLNPEDTAVYYCAAVYRRYGASRYDYWGQGTQVTVSS | high polyreactivity
QVQLVESGGGLVQAGGSLRLSCAASGSTFNVNAMGWYSQAPGKERELVATISSGGSTNYADSVKGRFTISRDNAKNTVYLQMNSLKPEDTAVYYCAKEYGSIIPYDYWGQGTQVTVSS | low polyreactivity
QVQLVESGGGLVQAGGSLRLSCAASGLTFTKNVMGWYRQAPGKERELVAVISRSGGSTYYADSVKGRFTISRDNAKNTVYLQMNSLKPEDTAVYYCNVKGPGPSRGNYWGQGTQVTVSS | low polyreactivity
